From patent US20230071609A1 (Genentech, published 2023)
Values belong to the binder of their own block, whether it stands above or below them.

Columns and labels:
APOL1 peptide aa 364-385 = target: T1, APOL1 peptide aa 364-385 (human); assay: overlapping ~20-mer peptides (SPR, western blot)
T1 peptide: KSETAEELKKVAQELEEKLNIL
Description: (§1) Following three TBST washes, anti-mouse (GE Healthcare NA931V, 1:3000) or anti-rabbit HRP (Jackson 711-036-152, 1:8000) was added as secondary antibody. After 1 h, membranes were washed and protein detected using ECL prime (Amersham RPN2232) exposed to MR film (Kodak). Anti-actin HRP-conjugated antibody (clone 13E5, Cell Signaling Technologies 5125S at 1:5000) or calnexin (Abcam Ab22595 at 1:1000) was used as a loading control. For peptide mapping, 2 μl of 1 mM peptides in DMSO were boiled in 5× sample buffer and loaded on 10% Tris-Glycine gel and run using MES buffer. Cell pellets of Sf9 lysates were lysed in native RIPA (NP-40) lysis buffer and run on 10% Tris-Glycine gels.
A 96×96 array-based SPR imaging system (Carterra USA) was used for epitope mapping of anti-ApoL1 monoclonal antibodies. Briefly, purified monoclonal hybridoma antibodies were diluted at 10 μg/ml in 10 mM sodium acetate buffer pH 4.5. Using amine coupling, antibodies were directly immobilized onto a SPR sensorprism CMD 200M chip (XanTec Bioanalytics, Germany) using a Continuous Flow Microspotter (Carterra, USA) to create an array of antibodies. After coupling, the antibodies were blocked with ethanolamine, and primed with running buffer (10 mM HEPES, pH 7.4, 150 mM NaCl, 3 mM EDTA, and 0.005% Tween 20). […]

[1] = target: T2, APOL1-G2 (deletion of N388 and Y389) (human, UniProt O14791 29-398); assay: flow cytometry, live CHO cells expressing full length native iAPOL1-G2
T2 construct: expressed in CHO cells (flow cytometry, lysates), COS cells and podocytes; also called iAPOL1-G2; APOL-G2
T2 sequence: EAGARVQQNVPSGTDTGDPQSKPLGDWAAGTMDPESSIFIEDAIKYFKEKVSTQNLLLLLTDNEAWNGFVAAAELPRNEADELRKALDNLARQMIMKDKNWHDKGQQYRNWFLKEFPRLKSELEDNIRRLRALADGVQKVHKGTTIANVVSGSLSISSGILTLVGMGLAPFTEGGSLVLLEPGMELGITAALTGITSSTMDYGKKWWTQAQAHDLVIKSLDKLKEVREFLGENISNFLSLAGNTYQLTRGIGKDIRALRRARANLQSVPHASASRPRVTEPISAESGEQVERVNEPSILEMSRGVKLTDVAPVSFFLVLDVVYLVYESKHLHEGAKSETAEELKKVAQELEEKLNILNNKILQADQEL

[2] = target: T3, endogenous human APOL1 (wild-type immortalized podocytes; also JHH-1 cells, kidney and liver tissue) (human, UniProt O14791 28-398); assay: summary of the Examples: podocyte flow cytometry
T3 construct: whole, on cells; Cell or tissue and permeabilization are told under assay; also called podocyte APOL1; endogenous APOL1
T3 sequence (looked up): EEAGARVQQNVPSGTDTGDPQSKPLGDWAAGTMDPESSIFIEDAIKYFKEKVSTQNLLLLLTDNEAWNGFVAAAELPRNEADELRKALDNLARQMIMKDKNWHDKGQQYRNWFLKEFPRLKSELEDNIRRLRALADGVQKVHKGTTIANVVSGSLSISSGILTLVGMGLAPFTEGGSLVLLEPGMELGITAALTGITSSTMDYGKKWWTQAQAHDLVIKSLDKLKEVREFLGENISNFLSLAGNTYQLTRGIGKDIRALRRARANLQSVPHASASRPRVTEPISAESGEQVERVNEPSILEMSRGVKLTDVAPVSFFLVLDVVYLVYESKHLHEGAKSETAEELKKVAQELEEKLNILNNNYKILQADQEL
Description: (§2) Cells were harvested with 5 mM EDTA in PBS, washed once with growth media and twice with PBS. Approximately 0.5×10⁶/m1 of cells resuspended in PBS were incubated with anti-APOL1 antibodies for 1 h on ice. Following two PBS washes, 2 μg/ml of Alexa488 anti-mouse or anti-rabbit (Invitrogen A11029 and A21206, respectively) was used for 1 h on ice for detection. Cells were washed twice in PBS and resuspended in PBS with 1 μg/ml propidium iodide. Signals were read in a FACSCalibur3 (Becton Dickinson), with the exception of FIG. 8A and FIG. 14, which used a FACSCelesta, and data was analyzed using FlowJo v8.4.5. Mean fluorescence intensities were plotted in PRISM v7 after subtraction of secondary antibody alone background. For low pH experiments, cells were incubated with the antibodies in the presence of PBS pH 7.0 or PBS pH 5.5 for an hour on ice and detected with secondary antibodies at neutral pH.

[3] = target: T4, circulating APOL1 in normal human serum (human, UniProt O14791 28-398); assay: summary of the Examples: trypanolysis blocking as proxy for serum APOL1
T4 construct: mature; Serum of healthy volunteers; lipoprotein-associated; also called serum APOL1; HDL APOL1
T4 sequence (looked up): T3 sequence (looked up)
Description: The trypanolysis assay used herein to text specificity of antibodies for serum APOL1 is as follows. Trypanosoma brucei brucei were obtained from ATCC and cultured in HMI-9 media containing IMDM (Genentech), heat-inactivated (56° C. for 30 min) FBS (Seradigm IXL9/06807/GEN), 1% serum plus (Sigma 14008C), HMI-9 (Genentech) and 1% hypoxanthine (Genentech). Trypanosome lysis was performed by treating 1×10⁵ Trypanosomes with serial dilutions of NHS or recombinant APOL1 for 16 h in a total of 100 μl. Live cell read out was done by the Alamar Blue assay as per the manufacturer's protocol, (Thermo Fisher, DAL1100). Briefly 10 μl of Alamar Blue was added to each well, incubated at 37° C. for 4 h. Red fluorescence, indicating live trypanosomes, was measured on a SpectraMax® fluorimeter powered by SoftMAX® PRO with excitation at 530 nm and emission 590 nm. For the antibody blocking assay, 1% normal human serum was preincubated with 1-10 μg/ml of anti-APOL1 antibody or media at room temperature for 20 minutes followed by addition of trypanosomes. After 16 h, the Alamar Blue assay was performed as above and background values for media only were subtracted and % blocking calculated by normalizing to no antibody control.
Trypanosoma brucei brucei were obtained under MTA from ATCC and cultured in HMI-9 media containing IMDM (Genentech), heat-inactivated (56° C. for 30 min) FBS (Seradigm IXL9/06807/GEN), 1% serum plus (Sigma 14008C), HMI-9 (Genentech) and 1% hypoxanthine (Genentech). Trypanosome lysis was performed by treating 1×10⁵ Trypanosomes with serial dilutions of NHS or recombinant APOL1 for 16 h in a total of 100 μl. Live cell read out was done by the Alamar Blue assay as per the manufacturer's protocol (30) (Thermo Fisher, DAL1100). Briefly 10 μl of Alamar Blue was added to each well, incubated at 37° C. for 4 h. Red fluorescence, indicating live trypanosomes, was measured on a SpectraMax fluorimeter powered by SoftMAX PRO with excitation at 530 nm and emission 590 nm. For the antibody blocking assay, 1% normal human serum was preincubated with 1-10 μg/ml of anti-APOL1 antibody or media at room temperature for 20 mins followed by addition of trypanosomes.

[4] = target: T5, APOL1 very C-terminal peptide aa 376-398 (human); assay: overlapping ~20-mer peptides (SPR, western blot); antibody named in paragraph 192
T5 peptide: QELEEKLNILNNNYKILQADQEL
Description: as §1
A 96×96 array-based SPR imaging system (Carterra USA) was used for epitope mapping of anti-ApoL1 monoclonal antibodies. Briefly, purified monoclonal hybridoma antibodies were diluted at 10 μg/ml in 10 mM sodium acetate buffer pH 4.5. Using amine coupling, antibodies were directly immobilized onto a SPR sensorprism CMD 200M chip (XanTec Bioanalytics, Germany) using a Continuous Flow Microspotter (Carterra, USA) to create an array of antibodies. After coupling, the antibodies were blocked with ethanolamine, and primed with running buffer (10 mM HEPES, pH 7.4, 150 mM NaCl, 3 mM EDTA, and 0.005% Tween 20). Epitope mapping was performed by flowing 100 nM of different peptides of APOL1 across the immobilized anti-APOL1 antibodies on the biosensor chip at 25° C. in a running buffer of 10 mM HEPES, pH 7.4, 150 mM NaCl, 3 mM EDTA, and 0.005% Tween 20. After each flow through of the APOL1 peptide, the chip surface was regenerated using 10 mM glycine, pH 2.0.

[5] = target: T3, endogenous human APOL1 (wild-type …); assay: flow cytometry, live WT and iAPOL1-G0 podocytes
Description: as §2
More importantly, there were also differential APOL1 accessibilities between serum APOL1 and kidney disease-relevant podocytes (FIG. 18B). Some antibodies bound surface APOL1 in WT and iAPOL1 podocytes (FIG. 6A, 6B), but not circulating APOL1 (as judged by lack of trypanolytic blockade, FIG. 6C) and vice versa. […] Conversely, 3.3B6 and 4.17A5 were among the top trypanolytic blockers, but recognized the podocyte surface relatively weakly. […]

binding result (APOL1 peptide aa 364-385): binds
B1: antibody 4.29C4 (antibody, V domains shown)
VH: QVQLQQPGAELVRPGASVKLSCKASGYSFANYWMNWVKQRPGQGLEWIGMIHPSDSESRLSQRFKDKATLTVDKSSSTAYMQLNSPTSEDSAVYYCARLDYWGQGTSVTVSS
VL: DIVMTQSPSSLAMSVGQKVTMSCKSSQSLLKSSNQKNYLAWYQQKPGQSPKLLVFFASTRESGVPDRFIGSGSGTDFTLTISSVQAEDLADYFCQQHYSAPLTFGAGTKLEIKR
notes: Mouse mAb, cloned as murine IgG2a LALAPG

binding result [1]: no binding (tested: 5 µg/ml)
binding result [3]: binds
binding result [4]: binds
B4: antibody 4.11H11 (antibody, V domains shown)
VH: EVQVQQSGPELVKPGASMKISCKASGYSFIVYTMNWVKQSHGKNLEWIGLINPYNGGTIYNRKFKGKATLTVDKSSSTAYLELLSLTSEDSAVYYCARGALYRYEGAMDYWGQGTSVIVSS
VL: QIVLSQFPAILSASPGEKVTMTCRASSSVIYVHWYQQKPGSSPKPWIYATSNLASGVPARFSGSGSGTSHSLTISRLEAEDTATYYCQQWSSNPLTFGAGTKLEIKR
notes: as for B1
binding result [2]: binds

The remaining lines, values behind:

B2: antibody 4.11A10 (antibody, V domains shown)
VH: EVQLQQSGPELVKTGASVKISCKASGYSFTGYFMHWVKQSHGKSLEWIGYISCYNGVSVYNQRFKGKATFTIDTSSSTAYMQFNSLTSEDSAVYYCARDVLRYPRYAVDYWGQGTSVTVSS
VL: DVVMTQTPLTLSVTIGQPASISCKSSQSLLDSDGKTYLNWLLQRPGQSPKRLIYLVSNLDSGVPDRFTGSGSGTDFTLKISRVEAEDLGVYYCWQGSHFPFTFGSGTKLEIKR
notes: as for B1
binding result [1]: no binding (tested: 5 µg/ml)
binding result [2]: binds
binding result [3]: binds
binding result [4]: binds

B3: antibody 3.3B6 (antibody, V domains shown)
VH: QVQLQQSGAELARPGASVKLSCKASGYTFTSHWMQWLKQRPGQGLEWIGAIYPGDGDTKFTQKFKDKATLTADKSSTTAYMQLSSLASEDSAVYYCARENLYGYYFDYWGQGTTLTVSS
VL: QAVVTQESALTTSPGETVTLTCRSSTGAVTSGNFANWVQEKPDHLFTGLIGGADNRAPGVPARFSGSLIGDKAALIITGAQTEDEAIYFCALWYSDHWVFGGGTKLTVLG
notes: as for B1
binding result [5]: binds
